Reference: PMC8575775, “Structural basis of the interaction between SETD2 methyltransferase and hnRNP L paralogs for governing co-transcriptional splicing” (Nature Communications, 2021)
Where “and” joins values, the source holds several entries; their conditions need not be identical. Equal entries are not always repeated. Ends that are not written are not given here.

What was measured:
hnRNP L RRM2 = biological target: T1, hnRNP L RRM2 (Homo sapiens, UniProt P14866); assay: ITC of SETD2 peptides with hnRNP L RRM2; format: binding; conditions: ITC 20 °C, N.D. = No detectable interaction under the experiment conditions
T1 construct: made in house; host or cells: Escherichia coli BL21 (DE3)
T1 sequence (P14866 189-286): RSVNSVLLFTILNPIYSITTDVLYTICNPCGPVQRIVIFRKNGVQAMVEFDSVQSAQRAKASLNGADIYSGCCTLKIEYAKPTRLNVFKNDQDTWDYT
Procedure: (§1) The hnRNP L_RRM2 fragment (residues189-286) was amplified from the human brain cDNA library and cloned into a modified pET28a (Novagen) vector without a thrombin protease cleavage site (termed p28a). All the mutants were generated using a MutantBEST kit (Takara) and verified via DNA sequencing. All the proteins were expressed in Escherichia coli BL21 (DE3) cells. The cells were cultured at 37 °C in LB medium, until the OD600 reached about 0.8. Then the proteins were induced with 0.2 mM isopropyl β-D-1-thiogalactopyranoside (IPTG). After induction at 16 °C for 24 h, the cells were harvested and lysed by sonication in buffer A (20 mM Tris-HCl, pH 7.8, 1 M NaCl). Proteins were first purified by Ni-NTA agarose beads and further purified by size-exclusion chromatography on a Hiload 16/60 Superdex 75 column (GE Healthcare) in buffer A. Purified proteins were dialyzed with Buffer B (20 mM Tris-HCl pH 7.8, 150 mM NaCl) and concentrated for subsequent analysis.
(§2) Isothermal titration calorimetry (ITC) assays were performed at 20 °C by using a Microcal PEAQ-ITC instrument (Malvern). We conducted the ITC experiments using SETD2 peptides for titration into hnRNP L and hnRNP LL proteins. […] The integrated heat data were analyzed using a one-site binding model by MicroCal PEAQ 1.0.0.1259-ITC Analysis Software provided by the manufacturer.

hnRNP L Y257A = biological target: T2, hnRNP L Y257A (Homo sapiens, UniProt P14866, Y257A); assay: ITC with hnRNP L RRM2 Y257A mutant; format: binding; conditions: ITC 20 °C; N.D. = No detectable interaction under the experiment conditions
T2 construct: made in house; host or cells: Escherichia coli BL21 (DE3)
T2 sequence (P14866 189-286 Y257A): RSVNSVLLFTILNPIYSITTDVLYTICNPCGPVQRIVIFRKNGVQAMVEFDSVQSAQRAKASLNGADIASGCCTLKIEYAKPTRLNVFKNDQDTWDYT
Procedure: as §1, §2

PTB RRM2 (PTB1) = biological target: T3, PTB RRM2 (PTB1) (Homo sapiens, UniProt P26599); assay: ITC with PTB RRM2; format: binding; conditions: ITC 20 °C; N.D. = No detectable interaction under the experiment conditions
T3 construct: made in house; host or cells: Escherichia coli BL21 (DE3)

[1] = biological target: T4, hnRNP L RRM2 (residues 189-286) (human, UniProt P14866 189-286); assay: ITC; SETD2 peptides (about 600 µM, syringe) titrated into hnRNP L / hnRNP LL proteins (about 50 µM, cell); 20 °C; Microcal PEAQ-ITC; one-site binding model; mean of three independent experiments; conditions: both partners purified
T4 construct: hnRNP L, human, RRM2 fragment, residues 189-286, amplified from a human brain cDNA library; Cloned into a modified pET28a vector without a thrombin cleavage site (p28a); also called hnRNP L RRM2 WT; source: E. coli BL21 (DE3), purified (Ni-NTA, size-exclusion chromatography)
T4 sequence (looked up): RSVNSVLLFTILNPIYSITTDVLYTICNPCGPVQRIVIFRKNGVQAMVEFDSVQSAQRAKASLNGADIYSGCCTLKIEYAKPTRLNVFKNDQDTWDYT

hnRNP LL RRM2 [2] = biological target: T5, hnRNP LL RRM2 (human, UniProt Q8WVV9 166-268); assay: as above; conditions: both partners purified
T5 construct: hnRNP LL, human, RRM2 domain; The methods describe only the cloning of hnRNP L RRM2; all proteins were expressed in E. coli; source: E. coli BL21 (DE3), purified (Ni-NTA, size-exclusion chromatography)
T5 sequence: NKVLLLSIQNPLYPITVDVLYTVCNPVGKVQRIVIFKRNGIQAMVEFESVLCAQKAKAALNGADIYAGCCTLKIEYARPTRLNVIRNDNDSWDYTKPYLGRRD

hnRNP L RRM2 I256A = biological target: T6, hnRNP L RRM2 I256A (human, UniProt P14866 189-286, I256A); assay: as above; conditions: both partners purified
T6 construct: hnRNP L, human, RRM2 fragment 189-286 with I256A; source: E. coli BL21 (DE3), purified (Ni-NTA, size-exclusion chromatography)
T6 sequence (looked up): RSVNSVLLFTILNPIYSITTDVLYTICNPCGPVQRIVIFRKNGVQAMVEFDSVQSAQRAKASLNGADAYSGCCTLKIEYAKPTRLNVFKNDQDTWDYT

[3] = biological target: T7, hnRNP L RRM2 (residues 189-286) (human); assay: ITC; SETD2 peptide (about 600 µM, syringe) titrated into the protein (about 50 µM, sample pool); 20 °C; MicroCal PEAQ-ITC; one-site binding model; three independent titrations; conditions: both partners purified
T7 construct: heterogeneous nuclear ribonucleoprotein L, human, RRM2 fragment residues 189-286; also called hnRNP L^WT; source: E. coli BL21 (DE3), purified (Ni-NTA, size-exclusion chromatography)
T7 chain: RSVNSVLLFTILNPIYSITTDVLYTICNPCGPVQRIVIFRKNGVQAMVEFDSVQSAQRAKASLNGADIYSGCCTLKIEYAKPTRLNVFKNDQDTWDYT

hnRNP LL RRM2 [4] = biological target: T8, hnRNP LL RRM2 (human, UniProt Q8WVV9 166-268); assay: as above; conditions: both partners purified
T8 construct: heterogeneous nuclear ribonucleoprotein L-like, human, RRM2 domain; also called hnRNP LL^WT; source: E. coli BL21 (DE3), purified (Ni-NTA, size-exclusion chromatography)
T8 sequence: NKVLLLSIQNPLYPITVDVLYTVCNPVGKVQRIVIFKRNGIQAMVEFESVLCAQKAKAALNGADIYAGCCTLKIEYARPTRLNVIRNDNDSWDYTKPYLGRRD

hnRNP L^V210A RRM2 = biological target: T9, hnRNP L^V210A RRM2 (human, UniProt P14866 189-286, V210A); assay: as above; conditions: both partners purified
T9 construct: heterogeneous nuclear ribonucleoprotein L, human, RRM2 fragment residues 189-286 as Dm1, with V210A; source: E. coli BL21 (DE3), purified (Ni-NTA, size-exclusion chromatography)
T9 sequence (looked up): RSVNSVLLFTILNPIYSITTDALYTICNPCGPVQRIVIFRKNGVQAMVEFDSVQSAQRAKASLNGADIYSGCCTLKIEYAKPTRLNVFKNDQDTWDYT

hnRNP L^I214A RRM2 = biological target: T10, hnRNP L^I214A RRM2 (human, UniProt P14866 189-286, I214A); assay: as above; conditions: both partners purified
T10 construct: heterogeneous nuclear ribonucleoprotein L, human, RRM2 fragment residues 189-286 as Dm1, with I214A; source: E. coli BL21 (DE3), purified (Ni-NTA, size-exclusion chromatography)
T10 sequence (looked up): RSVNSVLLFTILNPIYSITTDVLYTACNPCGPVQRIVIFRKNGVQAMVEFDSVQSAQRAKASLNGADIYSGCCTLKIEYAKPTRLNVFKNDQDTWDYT

hnRNP L^I256A RRM2 = biological target: T11, hnRNP L^I256A RRM2 (human, UniProt P14866 189-286, I256A); assay: as above; conditions: both partners purified
T11 construct: heterogeneous nuclear ribonucleoprotein L, human, RRM2 fragment residues 189-286 as Dm1, with I256A; source: E. coli BL21 (DE3), purified (Ni-NTA, size-exclusion chromatography)
T11 sequence (looked up): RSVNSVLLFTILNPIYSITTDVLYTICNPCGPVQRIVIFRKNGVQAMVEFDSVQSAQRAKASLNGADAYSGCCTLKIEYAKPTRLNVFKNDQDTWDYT

hnRNP L^L263A RRM2 [5] = biological target: T12, hnRNP L^L263A RRM2 (human, UniProt P14866 189-286, L263A); assay: as above; conditions: both partners purified
T12 construct: heterogeneous nuclear ribonucleoprotein L, human, RRM2 fragment residues 189-286 as Dm1, with L263A; source: E. coli BL21 (DE3), purified (Ni-NTA, size-exclusion chromatography)
T12 sequence (looked up): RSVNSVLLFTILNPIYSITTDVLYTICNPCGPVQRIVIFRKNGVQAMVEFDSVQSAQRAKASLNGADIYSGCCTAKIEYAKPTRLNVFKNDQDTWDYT

hnRNP LL^V188I RRM2 = biological target: T13, hnRNP LL^V188I RRM2 (human, UniProt Q8WVV9 166-268, V188I); assay: as above; conditions: both partners purified
T13 construct: heterogeneous nuclear ribonucleoprotein L-like, human, RRM2 domain as Dm4, with V188I; source: E. coli BL21 (DE3), purified (Ni-NTA, size-exclusion chromatography)
T13 sequence: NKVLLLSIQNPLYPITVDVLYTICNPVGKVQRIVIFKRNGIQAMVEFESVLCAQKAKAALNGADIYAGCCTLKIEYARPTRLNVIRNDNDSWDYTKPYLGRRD

hnRNP L^L263A RRM2 [6] = biological target: T12, hnRNP L^L263A RRM2; assay: as above; conditions: both partners purified; remark: listed apart in the source

T3 sequence (P26599 184-260 limits assumed): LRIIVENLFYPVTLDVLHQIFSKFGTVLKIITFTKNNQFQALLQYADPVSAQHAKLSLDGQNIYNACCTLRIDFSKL

SETD2^2113–2140: adjacent SETD2 fragment, residues 2113–2140, used as non-binding control in ITC (RNKLSTEERRKLFEQEVAQREAQKQQQQ)
KD / interaction detected by ITC, in words (hnRNP L RRM2): could not detect any interaction
KD / interaction detected by ITC, in words (hnRNP L RRM2; listed as SETD2^2113-2140): No Binding

YPPGYPMQAYVDPSNPNAGKVLLPTP [SETD2^2167–2192]
KD / interaction detected by ITC, in words (hnRNP L Y257A): completely abolished
KD / interaction detected by ITC, in words (PTB RRM2 (PTB1)): no detectable affinity

YPPGYPMQAYVDPSNPNAGKVLLPTP (peptide, UniProt Q9BYW2 2167-2192, looked up, source: synthetic peptide) [SETD2 2167–2192 peptide]
Kd [1]: 5.86 µM
stoichiometry N [1]: 0.93
Kd (hnRNP LL RRM2 [2]): 8.27 µM
fold decrease in binding against wild-type hnRNP L RRM2 (hnRNP L RRM2 I256A): 9 fold

SNPNAGKVLLPTP (source: synthetic peptide) [SETD2^2180-2192 peptide]
Kd [3]: 11.4 µM and 11.8 µM and 11.5 µM
stoichiometry N [3]: 1.01 and 1 and 0.96
Kd (hnRNP LL RRM2 [4]): 20.2 µM and 19.8 µM and 20.1 µM (2×)
stoichiometry N (hnRNP LL RRM2 [4]): 0.82 and 0.83 and 0.89

YPPGYPMQAYVDPSNPNAGKVLLPTP (peptide, UniProt Q9BYW2 2167-2192, looked up, source: synthetic peptide) [SETD2^2167-2192 peptide]
Kd [3]: 5.83 µM and 5.91 µM
stoichiometry N [3]: 0.93 and 0.92
Kd (hnRNP LL RRM2 [4]): 8.58 µM and 8.04 µM and 8.19 µM
stoichiometry N (hnRNP LL RRM2 [4]): 0.95 and 1.04
Kd (hnRNP L^V210A RRM2): 9.1 µM and 8.9 µM and 9.33 µM and 9.11 µM
stoichiometry N (hnRNP L^V210A RRM2): 0.93 and 0.78 and 1.13
Kd (hnRNP L^I214A RRM2): 15.6 µM and 16.3 µM and 16.2 µM and 16 µM
stoichiometry N (hnRNP L^I214A RRM2): 1.01 and 1.05 and 1.18
Kd (hnRNP L^I256A RRM2): 34.8 µM and 35.8 µM and 35 µM and 35.2 µM
stoichiometry N (hnRNP L^I256A RRM2): 1.3 and 1.31 and 1.18
Kd (hnRNP L^L263A RRM2 [5]): 14.4 µM and 13.6 µM and 13.2 µM and 13.7 µM
stoichiometry N (hnRNP L^L263A RRM2 [5]): 0.85 and 0.98 and 0.93
Kd (hnRNP LL^V188I RRM2): 6.16 µM and 6.44 µM and 6.3 µM
stoichiometry N (hnRNP LL^V188I RRM2): 1.1 and 0.96 and 1.12
stoichiometry N (hnRNP L^L263A RRM2 [6]): 0.97

B1: SETD2 2180–2192 peptide (peptide)
peptide: SNPNAGKVLLPTP
notes: also called truncated peptide; source: synthetic peptide
Kd [1]: 11.6 µM
